Here are results for 28 molecules from patent US20260167699A1 (Chugai, published 2026).

This assay deals with T1, FcγRIIIa (human, UniProt P08637 17-208).
T1 construct: extracellular domain; also called 3a; FcγRIIIa extracellular domain
Description: SPR (Biacore).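 Note: antibody variants captured on an SPR sensor chip, with FcγRIIIa passed over as analyte in HBS-EP+ buffer at 25 °C.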
Description: The antibody of interest was analyzed for its interaction with FcγR using a BiaCore™ T100, BiaCore™ A100, or BiaCore™ 4000 surface plasmon resonance system (GE Healthcare Japan Corp.). The running buffer used was HBS-EP+ (GE Healthcare Japan Corp.). The assay temperature was set to 25° C. The sensor chips used were: a chip prepared by immobilizing antigenic peptides onto Series S Sensor Chip CM5 (GE Healthcare Japan Corp.) by the amine coupling method; a chip prepared by immobilizing antigenic peptides biotinylated in advance onto Series S Sensor Chip SA (certified) (GE Healthcare Japan Corp.) through their interaction; a chip prepared by immobilizing protein L (ACTIGEN, BioVision, Inc.) onto Series S Sensor Chip CM5 (GE Healthcare Japan Corp.); and a chip prepared by immobilizing protein A/G (Thermo Fisher Scientific K.K.) onto Series S Sensor Chip CM5 (GE Healthcare Japan Corp.). The antibody of interest was captured onto any of these chips and allowed to interact with FcγR diluted with a running buffer. The antibody captured on the chip was washed off through the reaction of 10 mM glycine-HCl (pH 1.5) to regenerate the chip, which was repetitively used.

T1 sequence (P08637 other isoform, or with tags, fused parts or gaps): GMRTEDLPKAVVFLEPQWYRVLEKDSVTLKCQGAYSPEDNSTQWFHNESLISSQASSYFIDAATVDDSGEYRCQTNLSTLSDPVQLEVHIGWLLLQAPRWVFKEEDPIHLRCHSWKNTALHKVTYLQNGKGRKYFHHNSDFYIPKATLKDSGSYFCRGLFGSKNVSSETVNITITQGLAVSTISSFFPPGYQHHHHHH

B1: GpH7-A5/GpH7-B3 variant P331_07I/GpL16-k0 (antibody, human IgG1, kappa)
heavy 1: not shown
heavy 2: not shown
light: DIVMTQSPLSLPVTPGEPASISCQASESLVHSNRNTYLHWYLQKPGQSPQLLIYKVSNRFSGVPDRFSGSGSGTDFTLKISRVEAEDVGVYYCSQNTHVPPTFGQGTKVEIERTVAAPSVFIFPPSDEQLKSGTASVVCLLNNFYPREAKVQWKVDNALQSGNSQESVTEQDSKDSTYSLSSTLTLSKADYEKHKVYACEVTHQGLSSPVTKSFNRGEC
notes: copies: 1 + 1 + 2
With B1, the “He/Con 3a” value was 60.4 % of GpH7-A5/GpH7-B3/GpL16-k0.

B2: GpH7-A5/GpH7-B3 variant S267_18N/GpL16-k0 (antibody, human IgG1, kappa)
heavy 1: not shown
heavy 2: not shown
light: B1 light
notes: copies: 1 + 1 + 2
For B2, the “He/Con 3a” value was 52 % of GpH7-A5/GpH7-B3/GpL16-k0.

B3: GpH7-A5/GpH7-B3 variant P331_15Y/GpL16-k0 (antibody, human IgG1, kappa)
heavy 1: not shown
heavy 2: not shown
light: B1 light
notes: copies: 1 + 1 + 2
Turning to B3, the “He/Con 3a” value was 74.9 % of GpH7-A5/GpH7-B3/GpL16-k0.

B4: GpH7-A5/GpH7-B3 variant Q295_08L/GpL16-k0 (antibody, human IgG1, kappa)
heavy 1: not shown
heavy 2: not shown
light: B1 light
notes: copies: 1 + 1 + 2
In the case of B4, the “He/Con 3a” value is 120 % of GpH7-A5/GpH7-B3/GpL16-k0.

B5: GpH7-A5/GpH7-B3 variant Q295_13S/GpL16-k0 (antibody, human IgG1, kappa)
heavy 1: not shown
heavy 2: not shown
light: B1 light
notes: copies: 1 + 1 + 2
On to B5, for which the “He/Con 3a” value is 90.4 % of GpH7-A5/GpH7-B3/GpL16-k0.

B6: GpH7-A5/GpH7-B3 variant S267_06M/GpL16-k0 (antibody, human IgG1, kappa)
heavy 1: not shown
heavy 2: not shown
light: B1 light
notes: copies: 1 + 1 + 2
As to B6, the “He/Con 3a” value is 65.3 % of GpH7-A5/GpH7-B3/GpL16-k0.

B7: GpH7-A5/GpH7-B3 variant Q295_12R/GpL16-k0 (antibody, human IgG1, kappa)
heavy 1: not shown
heavy 2: not shown
light: B1 light
notes: copies: 1 + 1 + 2
Turning to B7, the “He/Con 3a” value is 73.2 % of GpH7-A5/GpH7-B3/GpL16-k0.

B8: GpH7-A5/GpH7-B3 variant P331_08L/GpL16-k0 (antibody, human IgG1, kappa)
heavy 1: not shown
heavy 2: not shown
light: B1 light
notes: copies: 1 + 1 + 2
B8: the “He/Con 3a” value is 66 % of GpH7-A5/GpH7-B3/GpL16-k0.

B9: GpH7-A5/GpH7-B3 variant S239_07I/GpL16-k0 (antibody, human IgG1, kappa)
heavy 1: not shown
heavy 2: not shown
light: B1 light
notes: copies: 1 + 1 + 2
Take B9: the “He/Con 3a” value was 75 % of GpH7-A5/GpH7-B3/GpL16-k0.

B10: GpH7-A5/GpH7-B3 variant S239_10E/GpL16-k0 (antibody, human IgG1, kappa)
heavy 1: not shown
heavy 2: not shown
light: B1 light
notes: copies: 1 + 1 + 2
For the molecule B10, the “He/Con 3a” value was 171 % of GpH7-A5/GpH7-B3/GpL16-k0.

B11: GpH7-A5/GpH7-B3 variant S298_11K/GpL16-k0 (antibody, human IgG1, kappa)
heavy 1: not shown
heavy 2: not shown
light: B1 light
notes: copies: 1 + 1 + 2
Regarding B11, the “He/Con 3a” value is 50 % of GpH7-A5/GpH7-B3/GpL16-k0.

B12: GpH7-A5/GpH7-B3 variant S267_10E/GpL16-k0 (antibody, human IgG1, kappa)
heavy 1: not shown
heavy 2: not shown
light: B1 light
notes: copies: 1 + 1 + 2
As for B12, the “He/Con 3a” value was 90.9 % of GpH7-A5/GpH7-B3/GpL16-k0.

B13: GpH7-A5/GpH7-B3 variant S239_03V/GpL16-k0 (antibody, human IgG1, kappa)
heavy 1: not shown
heavy 2: not shown
light: B1 light
notes: copies: 1 + 1 + 2
In the case of B13, the “He/Con 3a” value was 72.4 % of GpH7-A5/GpH7-B3/GpL16-k0.

B14: GpH7-A5/GpH7-B3 variant P331_20W/GpL16-k0 (antibody, human IgG1, kappa)
heavy 1: not shown
heavy 2: not shown
light: B1 light
notes: copies: 1 + 1 + 2
For B14, the “He/Con 3a” value was 71.9 % of GpH7-A5/GpH7-B3/GpL16-k0.

B15: GpH7-A5/GpH7-B3 variant S298_07I/GpL16-k0 (antibody, human IgG1, kappa)
heavy 1: not shown
heavy 2: not shown
light: B1 light
notes: copies: 1 + 1 + 2
Consider B15, for which the “He/Con 3a” value was 90.7 % of GpH7-A5/GpH7-B3/GpL16-k0.

B16: GpH7-A5/GpH7-B3 variant Q295_03V/GpL16-k0 (antibody, human IgG1, kappa)
heavy 1: not shown
heavy 2: not shown
light: B1 light
notes: copies: 1 + 1 + 2
Turning to B16, the “He/Con 3a” value is 86.2 % of GpH7-A5/GpH7-B3/GpL16-k0.

B17: GpH7-A5/GpH7-B3 variant S239_01G/GpL16-k0 (antibody, human IgG1, kappa)
heavy 1: not shown
heavy 2: not shown
light: B1 light
notes: copies: 1 + 1 + 2
For the molecule B17, the “He/Con 3a” value is 72 % of GpH7-A5/GpH7-B3/GpL16-k0.

B18: GpH7-A5/GpH7-B3 variant S239_19Q/GpL16-k0 (antibody, human IgG1, kappa)
heavy 1: not shown
heavy 2: not shown
light: B1 light
notes: copies: 1 + 1 + 2
B18: the “He/Con 3a” value was 53.8 % of GpH7-A5/GpH7-B3/GpL16-k0.

B19: GpH7-A5/GpH7-B3 variant S267_02A/GpL16-k0 (antibody, human IgG1, kappa)
heavy 1: not shown
heavy 2: not shown
light: B1 light
notes: copies: 1 + 1 + 2
For the molecule B19, the “He/Con 3a” value was 149 % of GpH7-A5/GpH7-B3/GpL16-k0.

B20: GpH7-A5/GpH7-B3 variant Q295_14T/GpL16-k0 (antibody, human IgG1, kappa)
heavy 1: not shown
heavy 2: not shown
light: B1 light
notes: copies: 1 + 1 + 2
Consider B20, for which the “He/Con 3a” value is 120 % of GpH7-A5/GpH7-B3/GpL16-k0.

B21: GpH7-A5/GpH7-B3 variant S298_08L/GpL16-k0 (antibody, human IgG1, kappa)
heavy 1: not shown
heavy 2: not shown
light: B1 light
notes: copies: 1 + 1 + 2
For the molecule B21, the “He/Con 3a” value was 69.2 % of GpH7-A5/GpH7-B3/GpL16-k0.

B22: GpH7-A5/GpH7-B3 variant P331_16H/GpL16-k0 (antibody, human IgG1, kappa)
heavy 1: not shown
heavy 2: not shown
light: B1 light
notes: copies: 1 + 1 + 2
With B22, the “He/Con 3a” value was 73.4 % of GpH7-A5/GpH7-B3/GpL16-k0.

B23: GpH7-A5/GpH7-B3 variant S298_01G/GpL16-k0 (antibody, human IgG1, kappa)
heavy 1: not shown
heavy 2: not shown
light: B1 light
notes: copies: 1 + 1 + 2
In the case of B23, the “He/Con 3a” value was 74.9 % of GpH7-A5/GpH7-B3/GpL16-k0.

B24: GpH7-A5/GpH7-B3 variant S298_04F/GpL16-k0 (antibody, human IgG1, kappa)
heavy 1: not shown
heavy 2: not shown
light: B1 light
notes: copies: 1 + 1 + 2
Consider B24, for which the “He/Con 3a” value was 77.6 % of GpH7-A5/GpH7-B3/GpL16-k0.

B25: GpH7-A5/GpH7-B3 variant Q295_10E/GpL16-k0 (antibody, human IgG1, kappa)
heavy 1: not shown
heavy 2: not shown
light: B1 light
notes: copies: 1 + 1 + 2
In the case of B25, the “He/Con 3a” value was 105 % of GpH7-A5/GpH7-B3/GpL16-k0.

B26: GpH7-A5/GpH7-B3 variant S239_06M/GpL16-k0 (antibody, human IgG1, kappa)
heavy 1: not shown
heavy 2: not shown
light: B1 light
notes: copies: 1 + 1 + 2
Regarding B26, the “He/Con 3a” value was 73.9 % of GpH7-A5/GpH7-B3/GpL16-k0.

B27: GpH7-A5/GpH7-B3 variant Q295_09D/GpL16-k0 (antibody, human IgG1, kappa)
heavy 1: not shown
heavy 2: not shown
light: B1 light
notes: copies: 1 + 1 + 2
For the molecule B27, the “He/Con 3a” value was 85.6 % of GpH7-A5/GpH7-B3/GpL16-k0.

B28: GpH7-A5/GpH7-B3 variant Q295_01G/GpL16-k0 (antibody, human IgG1, kappa)
heavy 1: not shown
heavy 2: not shown
light: B1 light
notes: copies: 1 + 1 + 2
Take B28: the “He/Con 3a” value is 76.6 % of GpH7-A5/GpH7-B3/GpL16-k0.
